Assays:
[1] = target: lizard alpha-1 nAChR orthosteric site mimotope; test: BLI
[2] = target: amphibian alpha-1 nAChR orthosteric site mimotope (Xenopus laevis); test: BLI; Octet RED 96; […] (1 µg/mL) […]; running buffer 1X DPBS with 0.1% BSA and 0.05% Tween-20; […], in triplicate

## alpha-cobratoxin (from UniProt P01391 1-71) (natural protein)
[1]
  AUC (potency) above that on the rodent mimotope: 30%
[2]
  AUC (potency) above that on the lizard mimotope: 50%
  AUC (potency) above that on the rodent mimotope: 98%

From publication PMC7150784
